“Also recorded” adds a separate entry of the source. Where two headings read alike, the source gives them in different places. Marks after values point to notes of the source that are not given here.
Tests used:
[1] = system: indomethacin-induced intestinal inflammation in Wistar rats; assay: Rat Crohn's Disease indomethacin-induced intestinal inflammation model, Study 3; format: in vivo
Method: Study 3: A third indomethacin-induced inflammation study was performed to verify previous results and test additional dose regimens. Intestinal inflammation was induced in male Wistar rats (Harlan Sprague Dawley) using indomethacin administered on Days 0 and 1 of the experiment according to Table 21.
All treatments were administered per the schedule starting on Day-3 of the experiment. Body weights were determined daily. On Day 2 (24 hours post-2nd indomethacin dose), the animals were prepped for sacrifice and analysis. The small intestines were removed and the length of each was recorded. Quantitative histopathology was performed on a subset of samples. Rat small intestine samples consisted of a 3 cm section of proximal jejunum and a 3 cm section of mid-jejunum collected 15 cm and 30 cm from the pylorus, respectively. Samples were fixed in 10% neutral buffered formalin. Samples were trimmed into multiple sections without bias toward lesion presence or absence. These sections were placed in cassettes, embedded in paraffin, microtomed at approximately 4 microns thickness, and stained with hematoxylin and eosin (H&E). The slides were evaluated microscopically by a board certified veterinary pathologist and scored for villous height as well as infiltration/inflammation, mucosal atrophy, villi/crypt appearance, abscesses/ulceration. A 1 to 4 severity grading scale was used, where 1=minimal, 2=mild, 3=moderate, 4=marked/severe, reflecting the combination of the cellular reactions seen histopathologically. Small intestine length was analyzed with an ANOVA model with a Tukey/Kramer post-hoc test for pairwise comparisons, with significance at p=0.05. Non-parametric histology score variables were compared with the vehicle control using a Mann Whitney U test with a Bonferroni correction for the p-value to create an overall alpha of 0.05.

[2] = parameters: species or system human
Excerpt: The cumulative results of the PK analyses were used to perform allometric scaling of GLP2-2G_AE864 terminal half-life, clearance and volume of distribution using data from three species (mouse, rat and monkey). Pharmacokinetic values for a 70 kg human were predicted by extrapolating the log linear relationship between body weight and each pharmacokinetic parameter, as shown in FIG. 17. […] The terminal half-life in humans can also be estimated using the predicted values for clearance (Cl) and volume of distribution (Vd) as 0.693×Vd/Cl.

[3] = system: indomethacin-induced intestinal inflammation in Wistar rats; assay: Rat Crohn's Disease indomethacin-induced intestinal inflammation model, Study 1; format: in vivo
Method: To determine the efficacy of GLP2-XTEN using single dose or qd dosing, the GLP2-2G-XTEN-AE864 fusion protein was evaluated in a rat model of Crohn's Disease of indomethacin-induced intestinal inflammation in three separate studies.
Study 1: Intestinal inflammation was induced in eighty male Wistar rats (Harlan Sprague Dawley) using indomethacin administered on Days 0 and 1 of the experiment. The rats were divided into seven treatment groups for treatment according to Table 19.
All treatments were administered per the schedule starting on Day −3 of the experiment. Body weights were determined daily. Groups 3 and 5 were dosed equimolar/day. On Day 2 (24 hours post-2nd indomethacin dose), the animals were prepped for sacrifice and analysis. Thirty minutes prior to sacrifice, the rats were injected intravenously with 1 ml 1% Evans Blue dye, in order to visualize ulcers and extent of inflammation by histopathology analysis. The rats were anesthetized (SOP 1810), blood samples were removed to determine the concentration of GLP-2-2G-XTEN using the anti-XTEN/anti-GLP2 ELISA method. The rats were euthanized then necropsied and scored by gross examination of the intestines for the presence of adhesions; i.e., none=0, mild=1, moderate=2, or severe=3. The small intestines were removed and the length of each was recorded. In each small intestine, a longitudinal incision was made and the interior was examined. The degree and length of the ulcerated area was recorded as a score; i.e., none=0, few=1, multiple=2, or continuous=3. For TNFα determination, intestinal samples were thawed and homogenized in a total of 20 ml with DPBS. The supernatants were equilibrated to room temperature and assayed for TNFα by ELISA (R&D Systems, Cat. RTA00, lot 281687, exp. 7 Sep. 2011). The samples for Group 1 were assayed undiluted. The samples for Groups 2-7 were diluted 1:4. For histopathology, the small intestines were gently washed with saline to remove the fecal material and were blotted to remove excess fluid. Each small intestine was weighed then processed for histopathology examination to quantitate the degree of inflammation; i.e., 0.0%=0, 1-33%=1, 34-66%=2, 67-100%=3.

[4] = rat, in vivo
Method: The fusion protein GLP2-2G-XTEN_AE864 was evaluated for its pharmacokinetic properties in Wistar rats following SC administration of two different dosage levels. Prior to the experiment, catheters were surgically implanted into the jugular vein of female Wistar rats. The catheterized animals were randomized into two groups containing three rats each. The fusion protein GLP2-2G-XTEN (lot AP510) was administered to each rat via SC injection as follows: 1) Low Dose 2 mg/kg (25 nmol/kg); or 2) High Dose 16 mg/kg (200 nmol/kg). Blood samples (˜0.2 mL) were collected through the jugular vein catheter from each rat into prechilled heparinized tubes at pre-dose, 0.08, 4, 8, 24, 48, 72, 96, 120 and 168 hours after test compound administration (10 time points). Blood was processed into plasma by centrifugation, split into two aliquots for analysis by ELISA. The samples were analyzed for fusion protein concentration, performed by both anti-XTEN/anti-XTEN sandwich ELISA (AS1602) and anti-GLP2/anti-XTEN sandwich ELISA (AS1705) and the results were analyzed using WinNonLin to obtain the PK parameters. Terminal half life was fit from 48 to 168 hours.

B1: GLP2-2G-XTEN_AE864: fusion protein of GLP-2 with glycine at position 2 linked at the C-terminus to XTEN AE864; sequence of FIG. 28 (SEQ ID NO: 798) (protein)
chain: HGDGSFSDEMNTILDNLAARDFINWLIQTKITDGGSPAGSPTSTEEGTSESATPESGPGTSTEPSEGSAPGSPAGSPTSTEEGTSTEPSEGSAPGTSTEPSEGSAPGTSESATPESGPGSEPATSGSETPGSEPATSGSETPGSPAGSPTSTEEGTSESATPESGPGTSTEPSEGSAPGTSTEPSEGSAPGSPAGSPTSTEEGTSTEPSEGSAPGTSTEPSEGSAPGTSESATPESGPGTSTEPSEGSAPGTSESATPESGPGSEPATSGSETPGTSTEPSEGSAPGTSTEPSEGSAPGTSESATPESGPGTSESATPESGPGSPAGSPTSTEEGTSESATPESGPGSEPATSGSETPGTSESATPESGPGTSTEPSEGSAPGTSTEPSEGSAPGTSTEPSEGSAPGTSTEPSEGSAPGTSTEPSEGSAPGTSTEPSEGSAPGSPAGSPTSTEEGTSTEPSEGSAPGTSESATPESGPGSEPATSGSETPGTSESATPESGPGSEPATSGSETPGTSESATPESGPGTSTEPSEGSAPGTSESATPESGPGSPAGSPTSTEEGSPAGSPTSTEEGSPAGSPTSTEEGTSESATPESGPGTSTEPSEGSAPGTSESATPESGPGSEPATSGSETPGTSESATPESGPGSEPATSGSETPGTSESATPESGPGTSTEPSEGSAPGSPAGSPTSTEEGTSESATPESGPGSEPATSGSETPGTSESATPESGPGSPAGSPTSTEEGSPAGSPTSTEEGTSTEPSEGSAPGTSESATPESGPGTSESATPESGPGTSESATPESGPGSEPATSGSETPGSEPATSGSETPGSPAGSPTSTEEGTSTEPSEGSAPGTSTEPSEGSAPGSEPATSGSETPGTSESATPESGPGTSTEPSEGSAPG
[1]; compared to vehicle-treated diseased rats, FIG. 24A
  small intestine length: increase in small intestine length
[1]; dosed once at 75 nmol/kg or three times at 25 nmol/kg
  efficacy by regimen compared with peptide: as effective as GLP2-2G peptide dosed ten times at 12.5 nmol/kg
[1]; fusion protein high (total dose 125 nmol/kg) and low (total dose 75 nmol/kg), FIG. 24B
  villi height: significant increase in villi height
[1]; high and low dose, vs vehicle-treated diseased rats, FIG. 24C
  mucosal atrophy score: significantly lower mucosal atrophy score
[1]; rat, in vivo
  efficacy in improving indomethacin-induced small intestine damage (histopathology): as good or better than GLP2-2G peptide
[1]; three treatment groups
  mucosal ulceration and mixed cell infiltrate: not significant
[2]
  Cl: 17* ml/hr
  T ½: 240* hr
  Vd: 91* mL/kg
[3]; 0.5 mg/kg peptide, both fusion protein groups, compared to diseased control Group 2, FIG. 21C
  small intestine weight: significant increase
[3]; 6 mg/kg fusion protein
  ulceration score: not significantly different from the non-diseased control
[3]; 2 and 6 mg/kg fusion protein
  scores of adhesions and transulceration: not significantly different from the non-diseased control
[3]; FIG. 21B
  small intestine length: significant increase; also recorded: length equivalent to the non-diseased control
[3]; FIG. 21D
  ulceration (gross pathology scoring of small intestine): significant decreases in ulceration
[3]; FIG. 21F
  small intestine inflammation score: neither the GLP-2-2G peptide nor the GLP-2-2G-XTEN fusion protein treatments showed a significant effect on inflammation
[3]; compared to disease control (Group 2), FIG. 21A
  body weight at termination: demonstrated a significant increase
[3]; compared to diseased control (Group 2), FIG. 21E
  scores of adhesions and transulceration: significant decreases
[3]; compared to diseased control Group 2, FIG. 21G
  TNFα in small intestine (ELISA): significantly decreased cytokine levels
[3]; equal nmol/kg dosing
  efficacy in improving indomethacin-induced small intestine damage: as good or better than GLP2-2G peptide
[4]
  Cl: 0.80 mL/h
  T ½: 43.6 h
  Vd: 0.21 L/kg
[4]; sc
  terminal half-life: 37.5 to 49.7 h
[4]; sc, 2 mg/kg
  AUCInf: 530 µg·h/mL
  Vz: 43.4 mL

Source: US20250388643A1, “GLUCAGON-LIKE PEPTIDE-2 COMPOSITIONS AND METHODS OF MAKING AND USING SAME” (Amunix Pharmaceuticals, Inc., priority 2011, published 2025)
